{"source": "patent US20040175785A1", "about": "“Increasing bioavailability of carotenoids” (priority 2001, published 2004)", "molecules": {"B1": {"name": "pancreatic lipase: lipase pancreatic from porcine, obtained from Sigma Chemical Co. (protein, UniProt P00591 1-450, looked up)", "Pancreatic triacylglycerol …": "SEVCFPRLGCFSDDAPWAGIVQRPLKILPWSPKDVDTRFLLYTNQNQNNYQELVADPSTITNSNFRMDRKTRFIIHGFIDKGEEDWLSNICKNLFKVESVNCICVDWKGGSRTGYTQASQNIRIVGAEVAYFVEVLKSSLGYSPSNVHVIGHSLGSHAAGEAGRRTNGTIERITGLDPAEPCFQGTPELVRLDPSDAKFVDVIHTDAAPIIPNLGFGMSQTVGHLDFFPNGGKQMPGCQKNILSQIVDIDGIWEGTRDFVACNHLRSYKYYADSILNPDGFAGFPCDSYNVFTANKCFPCPSEGCPQMGHYADRFPGKTNGVSQVFYLNTGDASNFARWRYKVSVTLSGKKVTGHILVSLFGNEGNSRQYEIYKGTLQPDNTHSDEFDSDVEVGDLQKVKFIWYNNNVINPTLPRVGASKITVERNDGKVYDFCSQETVREEVLLTLNPC"}}, "test": "Enzymatic deesterification of paprika oleoresin carotenoids, HPLC determination", "type": "biochemical", "procedure": "HPLC was conducted on a Shimadzu LC-10 AT equipped with SCL-10A Shimadzu diode array detector. Photodiode array measurements of spectral properties from the individual peaks (from 260 to 540 nm) were determined at the upslope, apex and downslope. The column (Merck RP-18e 3.4×250 […], 5-μm particles) was used for HPLC separations. The peaks were detected at 450 and 474 nm.\nDeesteriflcation paprika oleoresin by enzymes: Paprika oleoresin (20 mg) was mixed with TWEEN-20 (200 μl) or deoxycholate (100 mg) and 10 ml of H2O. The emulsion has been shaken at 37° C. for 24 hours. Extraction of carotenoids was performed by the addition of 4 ml of ethanol and 5 ml of hexane. The extraction with hexane was done repeatedly until no color could be observed in the extracts. The combined hexane extracts were washed with water (25 ml) and dried over anhydrous sodium sulfate for HPLC determination of the carotenoids."}
{"molecule": "B1", "values": [{"measurement": "extent of deesterification of paprika carotenoids", "setting": "general statement, \"shown herein\"", "result": "to a very limited extent"}, {"measurement": "deesterification in similar assays with other lipases, compared with lipase amano 30", "setting": "similar assays to FIGS. 3 and 4", "result": "far poorer results"}]}
